The results in this text go back to patent US20210071137A1, “PRODUCTION METHOD FOR CELL MASS INCLUDING NEURAL CELLS/TISSUE AND NON-NEURAL EPITHELIAL TISSUE, AND CELL MASS FROM SAME” (SUMITOMO CHEMICAL COMPANY, LIMITED, priority 2017, published 2021).

Counter-ions that a name gives are not always drawn.

Common to all, as to format: cell-based
The test system of series [1] is cell mass containing neural tissue and nonneural epithelial tissue prepared from human ES cell line KhES-1. As to the kind of experiment: Compound stimulability test by fluorescein staining and extraction (Example 11). The note with it: test compound 2.5% in PBS, 24 hr, 37° C.; 0.02% fluorescein 30 sec; extraction 10 min; excitation 485 nm, emission 535 nm; Category 1 compound versus Category 2 compound. As for the experimental part: Cell masses were prepared by the method described in Example 3 from human ES cell line KhES-1. Cell masses were collected using micropipette on day 28 from the start of suspension culturing, placed in a dish for suspension culture (manufactured by SUMITOMO BAKELITE CO., LTD.), and further cultured in suspension under the conditions of 37° C., 5% CO2 for 9 days. As the serum-free medium (gfCDM+KSR) therefor, a serum-free medium which is a 1:1 mixture of F-12+Glutamax medium (manufactured by Thermo Fisher Scientific) and […] medium (manufactured by Thermo Fisher Scientific) supplemented with 10% Knockout Serum Replacement (manufactured by Thermo Fisher Scientific), 450 μM 1-mono thioglycerol (manufactured by Wako Pure Chemical Industries, Ltd.), 1×Chemically defined lipid concentrate (manufactured by Thermo Fisher Scientific), 50 unit/ml penicillin-50 μg/ml streptomycin (manufactured by Nacalai Tesque) was used.
The cell masses on day 37 of suspension culturing and prepared by the above-mentioned method were added to 1.5 ml microtubes at 3 masses per tube, and washed twice with PBS. […] The concentration of fluorescein in the extract prepared by the above-mentioned method was measured using a fluorescent plate reader (2104 EnVision multilabel counter, manufactured by Perkin Elmer) under the conditions of excitation 485 nm and emission 535 nm.

In series [2] the test system is Human ES cells (KhES-1 strain). As to the kind of experiment: Consideration of timing of addition of BMP4 in production of cell mass (Example 4). The procedure:
Human ES cells (KhES-1 strain, obtained from Kyoto University) were cultured under feeder-free conditions according to the method described in Scientific Reports, 4, 3594 (2014). As the feeder-free medium, StemFit medium was used and, as the feeder-free scaffold, […] was used.
Specific maintenance culturing operation was performed in the same manner as in Comparative Example 1. Thereafter, suspension culturing in a 96-well plate under conditions similar to those in Comparative Example 1 was started. The condition without addition of a BMP signal transduction pathway activating substance during the suspension culturing period was taken as the control (−BMP4 condition, FIG. 5A). In the condition with the addition of a BMP signal transduction pathway activating substance simultaneously with the start of the suspension culturing (Day0+BMP4 condition, FIG. 5B), human recombinant BMP4 (manufactured by R & D Systems, 1.5 nM, start of step 2) was added. Thereafter, in the condition with the addition of a BMP signal transduction pathway activating substance on days 1, 2, 3 from the start of suspension culturing (Day1-3+BMP4 condition, FIGS. 5C-E), a serum-free medium not containing Y27632 and containing IWP-2, SB-431542, BMP4 was added at 100 μl per well. BMP4 was added at 3 nM to the medium such that the final concentration thereof in the well was 1.5 nM. Only in the Day0+BMP4 condition, a serum-free medium not containing Y27632 and containing IWP-2, SB-431542, BMP4 was added at 100 μl per well on day 3 from the start of suspension culturing. In the condition with the addition of a BMP signal transduction pathway activating substance on day 6 from the start of differentiation induction (Day6+BMP4 condition, FIG. 5F), a serum-free medium not containing Y27632 or BMP4 and containing IWP-2 and SB-431542 was added at 100 μl per well on day 3 from the start of differentiation induction, and a half amount of the medium was changed on day 6 with a serum-free medium not containing Y27632 and containing IWP-2, SB-431542, BMP4. Under other conditions, a half amount of the medium was changed with a serum-free medium not containing Y27632 or BMP and containing IWP-2 and SB-431542 on day 6 from the start of suspension culturing. On day 10 from the start of suspension culturing, bright field observation was performed using an inverted microscope (manufactured by KEYENCE CORPORATION, BIOREVO) (FIGS. 5A-B).

Series [3] relates to Human ES cells (KhES-1 strain). As to the kind of experiment: Consideration of concentration of BMP4 in production of cell mass (Example 6). As for the experimental part: Human ES cells (KhES-1 strain, obtained from Kyoto University) were cultured under feeder-free conditions according to the method described in Scientific Reports, 4, 3594 (2014). As the feeder-free medium, StemFit medium was used and, as the feeder-free scaffold, Laminin 511-E8 was used. Specific maintenance culturing operation was performed in the same manner as in Comparative Example 1.
The thus-prepared subconfluent human ES cells were washed with PBS, subjected to an enzyme treatment using Accumax, a serum-free medium for differentiation induction was added, and the cells were scraped from the surface of the culture dish by using a cell scraper and dispersed into single cells by pipetting. Thereafter, the aforementioned human ES cells dispersed into single cells were suspended in 100 μl of a serum-free medium at 1×10^4 cells per well of a non-cell-adhesive 96-well culture plate (PrimeSurface 96V-bottom plate, manufactured by SUMITOMO BAKELITE), and cultured in suspension under the conditions of 37° C., 5% CO2. […]

[4] abbreviates: BMP4 1.5 nM, observation day 10.

On to `O=Cc1ccc(C(=O)O)cc1` [4-formylbenzoic acid], for which, in series [1], the “elution amount after incorporation of fluorescein” value was “significant difference”.
On the same count and under the same terms, for `CC(CN1c2ccccc2Sc2ccccc21)N(C)C` (stereo not shown) [promethazine hydrochloride] the value was “significant difference”.

B1: BMP4: human recombinant BMP4 (manufactured by R & D Systems), BMP signal transduction pathway activating substance (protein, UniProt P12644 293-408, looked up)
Bone morphogenetic protein 4: SPKHHSQRARKKNKNCRRHSLYVDFSDVGWNDWIVAPPGYQAFYCHGDCPFPLADHLNSTNHAIVQTLVNSVNSSIPKACCVPTELSAISMLYLDEYDKVVLKNYQEMVVEGCGCR
Regarding B1, the “time of addition from the start of suspension culturing effective for formation of the cell mass” value in series [2] (BMP4 1.5 nM) was no more than 72 h. Also, in series [2] (BMP4 1.5 nM added on day 1 and day 2 (Day1, 2+BMP4), observation day 10), the “formation of cell masses with two-layer structure” value is “cell masses containing neural tissue and nonneural epithelial tissue and having a two-layer structure in which a center part with a neuroepithelium-like structure is covered with a nonneural epithelium-like layer were formed”. The “efficiency of formation of nonneural epithelium-like tissue on the outside” value in series [2] (BMP4 1.5 nM added on day 3 and day 6, observation day 10) was “lower than that of the condition with the addition of BMP4 on day 2”. Besides, the “formation of embryoid body” value in series [2] (BMP4 1.5 nM added simultaneously with start of differentiation induction (Day0+BMP4), observation day 10) is on record as “markedly inhibited”. For the same molecule, in series [2] (setting [4]), the “diameter of embryoid body, BMP4 on day 2 relative to BMP4 on day 1” value is listed as “about 1.3 times” and the “volume of embryoid body, BMP4 on day 2 relative to BMP4 on day 1” value is on record as “about 2.2 times”. The “BMP4 concentration at which nonneural epithelial tissue can be formed on the surface of cell mass” value in series [3] (BMP4 added on day 2 from the start of suspension culturing) is recorded as “not less than 0.1 nM”. The “formation of cell mass having nonneural epithelial tissue on the surface” value in series [3] (BMP4 at any concentration from 0.1 nM to 5 nM added on day 2, IWP-2 2 μM, SB-431542 1 μM, observation day 10) is listed as “a cell mass having nonneural epithelial tissue on the surface was formed”.
